Reference: article PMC12677461

Target: Gαo, alpha subunit of the heterotrimeric G protein Go (native, mouse brain) (mouse (endogenous in BALB/c mouse brain)) (UniProt P18872)
Assay: co-IP; mouse brain lysate (2 mg/ml in IP buffer: 50 mM HEPES pH 7.4, 100 mM NaCl, 1 mM EDTA, 3 mM EGTA, 10 mM MgCl2, 1% Triton X-100) with 100 µM GDP, 4 °C, 2 h; Gαo precipitated with anti-Gαo sc-13532 cross-linked to protein A/G agarose; read by protein stain and western blot

Chain of UniProt P18872 (P18872 whole entry, one chain of several): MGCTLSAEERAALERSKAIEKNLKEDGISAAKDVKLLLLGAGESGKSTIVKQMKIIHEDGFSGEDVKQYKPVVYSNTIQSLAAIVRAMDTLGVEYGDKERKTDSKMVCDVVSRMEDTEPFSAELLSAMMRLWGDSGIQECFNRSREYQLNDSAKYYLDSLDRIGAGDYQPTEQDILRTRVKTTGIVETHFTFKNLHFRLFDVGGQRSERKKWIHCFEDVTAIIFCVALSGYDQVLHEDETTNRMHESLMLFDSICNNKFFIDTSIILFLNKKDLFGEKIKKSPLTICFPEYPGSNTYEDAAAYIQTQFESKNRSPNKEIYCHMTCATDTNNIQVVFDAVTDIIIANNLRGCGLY

stoichiometry N: 1
Substance: Gβγ (G protein β and γ subunits, native, mouse brain) (from UniProt P62874 1-340; P63213 1-71) (complex)
